Measurements from PMC3919625.

Biological target: 2G12 IgG monomer (human)
Experiment: SEC

stoichiometry N: 3
Substance: 2G12 IgG monomer (antibody)
